Results as given in paper PMC9105436.

Molecular target: coconut protein (coconut)
Assay: ITC; Malvern MicroCal PEAQ-ITC; cell 200 uL with the low-concentration solution, syringe with the high-concentration solution (not told which held which); 13 injections of 3 uL; both solutions dialysed; fit with two sets of constants (N1/N2, K1, K2)

gelatin
K1: 4.33 µM | K2: 136 µM | N1: 2.69 | N2: 1.51 | dH1: -2.75 kcal/mol | dH2: -1.52 kcal/mol
